Results reported in US20260152565A1 (Dana-Farber, published 2026).
Read-outs that look alike come from different tables or passages of the source.

B1: PR001046 (antibody, V domains shown)
VH: EVQLVETGGGLIQPGGSLRLSCAASGFTVSDNYMTWVRQAPGKGLEWVSVIFSGGNTYYADSVKGRFTISRDNAKNTLYLQMNSLRAEDTALYYCARRNYDDTRGTDVFDIWGQGTMVTVSS
notes: also called HCAb antibody PR001046; PR001046 VH-only human IgG1 test antibody; not shown: constant part (CH2 and CH3)
B2: PR000943 (antibody, V domains shown)
VH: EVQLVETGGGLIQPGGSLRLSCAASGFPVSSNYMSWVRQAPGKGLEWVSVIFSGGRTYYADSVKGRFTISRDNSKNTLYLQMNSLRAEDTAVYYCARRNWIDGRDAFDIWGQGTMVTVSS
notes: also called HCAb antibody PR000943; not shown: constant part (CH2 and CH3 regions of the Harbour HCAb format)
B3: PR001035 (antibody, V domains shown)
VH: EVQLVETGGGLIQPGGSLRLSCAASGFTVSSNYMTWVRQAPGKGLEWVSVIFSGGSTYYADSVKGRFTISRDNSKNTLYLQMNSLRAEDTAVYYCARRIAVAGHDVFDIWGQGTMVTVSS
notes: also called HCAb antibody PR001035; not shown: constant part (CH2 and CH3 regions of the Harbour HCAb format)
B4: PR000940 (antibody, V domains shown)
VH: EVQLLESGGGLVQPGGSLRLSCAASGFTFSSYAMIWVRQAPGKGLEWVSGISESGGSTYYADSVKGRFTISRDNSKNTLYLQMNSLRAEDTAVYFCVKDLDDILTGYYKDYWGQGTLVTVSS
notes: Heavy chain-only antibody from Harbour HCAb mice: dimer of two heavy chains, each with VH, CH2 and CH3; also called HCAb antibody PR000940; not shown: constant part (CH2 and CH3 regions of the Harbour HCAb format)
B5: PR000274 (clone CA8-J6M0) (antibody, V domains shown)
VH: QVQLVQSGAEVKKPGSSVKVSCKASGGTFSNYWMHWVRQAPGQGLEWMGATYRGHSDTYYNQKFKGRVTITADKSTSTAYMELSSLRSEDTAVYYCARGAIYDGYDVLDNWGQGTLVTVSS
VL: DIQMTQSPSSLSASVGDRVTITCSASQDISNYLNWYQQKPGKAPKLLIYYTSNLHSGVPSRFSGSGSGTDFTLTISSLQPEDFATYYCQQYRKLPWTFGQGTKLEIKR

Tests used:
[1] = target: T1, human BCMA (TNFRSF17) expressed on cells (human, UniProt Q02223 1-184); experiment: cell binding, MFI against antibody concentration, HEK 293T-hu BCMA cells (cell line from legend paragraph 17)
T1 construct: whole, on cells; also called HEK 293T-hu BCMA cells; human BCMA cell lines
T1 sequence (looked up): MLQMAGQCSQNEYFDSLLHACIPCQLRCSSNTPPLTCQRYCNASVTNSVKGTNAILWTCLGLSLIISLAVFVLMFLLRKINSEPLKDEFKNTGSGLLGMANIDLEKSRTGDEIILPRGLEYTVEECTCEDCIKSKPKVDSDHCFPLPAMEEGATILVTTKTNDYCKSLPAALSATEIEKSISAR

[2] = target: T2, BCMA on cells, species not stated (Homo sapiens (Human), UniProt Q02223 1-184); experiment: blocking of BAFF binding to BCMA cells
T2 construct: also called BCMA cells; 3T3 BCMA cells
T2 sequence: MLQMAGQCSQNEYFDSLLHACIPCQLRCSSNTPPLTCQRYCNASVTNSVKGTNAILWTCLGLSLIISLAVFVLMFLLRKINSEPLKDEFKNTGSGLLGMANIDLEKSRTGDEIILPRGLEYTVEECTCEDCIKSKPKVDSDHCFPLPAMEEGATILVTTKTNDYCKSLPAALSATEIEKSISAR

[3] = target: T2, BCMA on cells, species not stated; experiment: cell binding, MFI against antibody concentration, panel title Bind to NCI-H929 cell
EGFR = target: T3, EGFR (human, UniProt P00533 25-1210); experiment: cell microarray, confirmation screen, control receptor; cell left blank in Table 13
T3 construct: whole, on cells; also called control receptor
Method: In order to screen the on-target specificity of one of the VH-only anti-BCMA-targeted CARs, the Retrogenix Cell Microarray Technology platform was employed, which is a high-throughput platform for screening binding interactions between a test molecule and about 6100 human surfaceome proteins.
This was performed on both fixed and live cells (FIGS. 11A-11D).

[4] = target: T4, cynomolgus monkey BCMA expressed on HEK 293T cells (cynomolgus monkey, UniProt A0A2K5UD97 1-183); experiment: cell binding, MFI against antibody concentration, panel title Bind to HEK293T - cyno BCMA
T4 construct: also called HEK 293T-cyno BCMA cells; cyno BCMA

[5] = target: T5, hBCMA-his-biotin (Acro, BCA-H82E4) (human, UniProt Q02223 1-54, biotin (as printed: hBCMA-his-biotin; site not stated)); experiment: biosensor kinetics, SA sensor loaded with hBCMA-his-biotin, antibody in solution
T5 construct: Bought reagent; not shown: His tag
T5 sequence (looked up): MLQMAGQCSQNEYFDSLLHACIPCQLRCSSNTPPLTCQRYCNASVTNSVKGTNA
Method: (§1) The sensor was streptavidin (SA), loaded with hBCMA-his-biotin from Acro catalog number BCA-H82E4, and 50 nM antibody with a 1:2 dilution factor. Association times in FIG. 5A-FIG. 5C were each 600 s and dissociation times were each 900 s.

[6] = target: T5, hBCMA-his-biotin (Acro, BCA-H82E4); experiment: as above; remark: listed apart in the source
Method: as §1

T4 sequence (A0A2K5UD97 entry or part of it limits assumed): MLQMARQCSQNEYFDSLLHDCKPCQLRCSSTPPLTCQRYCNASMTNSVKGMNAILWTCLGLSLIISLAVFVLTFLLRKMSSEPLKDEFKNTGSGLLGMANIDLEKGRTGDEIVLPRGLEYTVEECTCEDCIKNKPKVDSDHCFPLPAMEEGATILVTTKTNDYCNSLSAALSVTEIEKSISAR

| Binder | EC50 (read off the curve) [1] [µg/mL] | Span [2] | EC50 (read off the curve) [3] [nM] | binding result (EGFR) | binding result [4] | Kd [5] [nM] | koff [5] [s⁻¹] | kon [5] [M⁻¹ s⁻¹] | Kd [6] [nM] | koff [6] [s⁻¹] | kon [6] [M⁻¹ s⁻¹] |
| --- | --- | --- | --- | --- | --- | --- | --- | --- | --- | --- | --- |
| B1 | ~0.02 | 1.99 | ~2 | no binding (tested: 2.5 µg/mL) |  |  |  |  |  |  |  |
| B2 | ~0.01 | 2.19 | ~4 |  |  |  |  |  |  |  |  |
| B3 | ~0.02 | 1.92 | ~1 |  |  |  |  |  |  |  |  |
| B4 |  |  | ~2 |  | no binding |  |  |  |  |  |  |
| B5 |  | 1.86 | ~10 |  |  | < 0.001 | < 1e-07 | 228000 | < 0.001 | < 1e-07 | 195000 |
